{"source": "IntAct's records for PubMed 26592460", "parents": {"B1": {"name": "\"NAD(+) hydrolase SARM1\" (Homo sapiens), Q6SZW1 (parent)", "chain": "MVLTLLLSAYKLCRFFAMSGPRPGAERLAVPGPDGGGGTGPWWAAGGRGPREVSPGAGTEVQDALERALPELQQALSALKQAGGARAVGAGLAEVFQLVEEAWLLPAVGREVAQGLCDAIRLDGGLDLLLRLLQAPELETRVQAARLLEQILVAENRDRVARIGLGVILNLAKEREPVELARSVAGILEHMFKHSEETCQRLVAAGGLDAVLYWCRRTDPALLRHCALALGNCALHGGQAVQRRMVEKRAAEWLFPLAFSKEDELLRLHACLAVAVLATNKEVEREVERSGTLALVEPLVASLDPGRFARCLVDASDTSQGRGPDDLQRLVPLLDSNRLEAQCIGAFYLCAEAAIKSLQGKTKVFSDIGAIQSLKRLVSYSTNGTKSALAKRALRLLGEEVPRPILPSVPSWKEAEVQTWLQQIGFSKYCESFREQQVDGDLLLRLTEEELQTDLGMKSGITRKRFFRELTELKTFANYSTCDRSNLADWLGSLDPRFRQYTYGLVSCGLDRSLLHRVSEQQLLEDCGIHLGVHRARILTAAREMLHSPLPCTGGKPSGDTPDVFISYRRNSGSQLASLLKVHLQLHGFSVFIDVEKLEAGKFEDKLIQSVMGARNFVLVLSPGALDKCMQDHDCKDWVHKEIVTALSCGKNIVPIIDGFEWPEPQVLPEDMQAVLTFNGIKWSHEYQEATIEKIIRFLQGRSSRDSSAGSDTSLEGAAPMGPT"}}, "data": [{"variants_of": "B1", "settings": "with myd88_human MYD88, Q99836", "values": [{"variant": "G601A", "effect of a mutation on the interaction": "disrupting interaction strength"}]}, {"variants_of": "B1", "settings": "with tcam1_human TICAM1, Q8IUC6", "values": [{"variant": "G601A", "effect of a mutation on the interaction": "disrupting interaction strength"}]}, {"variants_of": "B1", "settings": "with tirap_human TIRAP", "values": [{"variant": "G601A", "effect of a mutation on the interaction": "disrupting interaction strength"}]}, {"variants_of": "B1", "settings": "with tcam2_human TICAM2, Q86XR7", "values": [{"variant": "G601A", "effect of a mutation on the interaction": "disrupting interaction strength"}]}]}
